Assay [1] deals with his-tagged sortilin luminal domain, mutant F170A (human) (UniProt Q99523). Kind of assay: SPR (Biacore), mutant immobilised on CM5, GST-pro-dom-NGF 10-50 nM, 1:1 fit.
In assay [2] the target is his-tagged sortilin luminal domain, mutant F174A (human) (UniProt Q99523). The assay is described as above.
Assay [3] addresses his-tagged sortilin luminal domain, mutant K172A (human) (UniProt Q99523). The assay is described as above.
Assay [4] concerns the target his-tagged sortilin luminal domain, mutant F165A (human) (UniProt Q99523). The description is as above.
The target of assay [5] is his-tagged sortilin luminal domain, mutant R160A (human) (UniProt Q99523). The assay is described as above.
Assay [6] concerns the target his-tagged sortilin luminal domain, mutant R163A (human) (UniProt Q99523). The assay is described as above.
For assay [7], the target named is his-tagged sortilin luminal domain, mutant R166A (human) (UniProt Q99523). Described as above.
For assay [8], the target named is purified human Sortilin extracellular domain (produced in stably transfected CHO cells) (human) (UniProt Q99523). Kind of assay: SPR (Biacore) competition, inhibitor prebound, then coinjected with 200 nM proNGF over immobilised Sortilin.
Assay [9] shares this target. Briefly: SPR (Biacore), 25-500 nM propeptide over immobilised Sortilin extracellular domain.
Assay [10] deals with T1, recombinant his-S-tagged pro-domain of human BDNF (residues Ala1-Arg110), from pET-30 Xa/LIC, E. coli (human) (UniProt P23560).
T1 sequence: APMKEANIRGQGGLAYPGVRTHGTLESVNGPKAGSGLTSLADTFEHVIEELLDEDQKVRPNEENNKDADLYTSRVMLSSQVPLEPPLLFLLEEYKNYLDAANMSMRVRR
Kind of assay: SPR (Biacore 2000), 390 nM Sortilin over immobilised pro-domain (˜300 fmol/mm2).

Chain of purified human Sortilin extracellular domain (produced in stably transfected CHO cells) (human) (Q99523 78-755 V650M limits assumed): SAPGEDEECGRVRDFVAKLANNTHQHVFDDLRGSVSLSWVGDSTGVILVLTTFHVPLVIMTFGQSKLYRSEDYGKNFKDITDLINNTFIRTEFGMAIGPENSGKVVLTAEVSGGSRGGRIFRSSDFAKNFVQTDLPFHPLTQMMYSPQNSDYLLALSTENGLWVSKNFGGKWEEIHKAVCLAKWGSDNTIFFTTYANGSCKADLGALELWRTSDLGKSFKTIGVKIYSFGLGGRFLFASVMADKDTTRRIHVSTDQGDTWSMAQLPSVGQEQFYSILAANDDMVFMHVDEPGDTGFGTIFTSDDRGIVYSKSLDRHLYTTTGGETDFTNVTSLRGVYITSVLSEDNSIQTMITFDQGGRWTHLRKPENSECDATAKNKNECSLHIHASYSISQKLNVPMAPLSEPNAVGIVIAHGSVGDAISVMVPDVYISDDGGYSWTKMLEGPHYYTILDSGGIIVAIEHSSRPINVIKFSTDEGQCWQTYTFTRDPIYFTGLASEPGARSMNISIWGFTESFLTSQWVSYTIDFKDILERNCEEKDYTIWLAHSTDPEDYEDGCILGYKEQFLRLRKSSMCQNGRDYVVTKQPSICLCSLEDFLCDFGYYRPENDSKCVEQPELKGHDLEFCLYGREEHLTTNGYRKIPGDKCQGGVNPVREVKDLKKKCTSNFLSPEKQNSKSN
Chain of his-tagged sortilin luminal domain, mutant R160A (human) (Q99523 other isoform, or with tags, fused parts or gaps R160A R160A limits assumed): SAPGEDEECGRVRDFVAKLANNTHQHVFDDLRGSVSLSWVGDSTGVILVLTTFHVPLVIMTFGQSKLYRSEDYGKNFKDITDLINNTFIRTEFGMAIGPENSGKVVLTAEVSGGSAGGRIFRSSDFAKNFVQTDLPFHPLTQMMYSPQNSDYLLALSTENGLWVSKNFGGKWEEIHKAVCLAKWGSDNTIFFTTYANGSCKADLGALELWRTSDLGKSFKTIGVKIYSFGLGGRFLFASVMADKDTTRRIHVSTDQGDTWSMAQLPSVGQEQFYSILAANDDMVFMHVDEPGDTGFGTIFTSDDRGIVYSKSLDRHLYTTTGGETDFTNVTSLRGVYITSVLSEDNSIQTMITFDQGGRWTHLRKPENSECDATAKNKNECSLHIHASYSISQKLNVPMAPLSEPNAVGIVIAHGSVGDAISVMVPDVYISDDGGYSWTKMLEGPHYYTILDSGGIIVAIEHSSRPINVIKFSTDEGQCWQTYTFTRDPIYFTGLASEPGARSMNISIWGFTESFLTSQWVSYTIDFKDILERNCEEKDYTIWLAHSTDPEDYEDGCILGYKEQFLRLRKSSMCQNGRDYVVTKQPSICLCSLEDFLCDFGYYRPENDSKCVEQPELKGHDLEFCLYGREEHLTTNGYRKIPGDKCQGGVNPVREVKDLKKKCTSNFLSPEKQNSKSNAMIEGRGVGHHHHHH
Chain of his-tagged sortilin luminal domain, mutant F170A (human) (Q99523 other isoform, or with tags, fused parts or gaps F170A F170A limits assumed): as the sequence (Q99523 other isoform, or with tags, fused parts or gaps R160A R160A limits assumed) above, with A116R, F126A counted along it
Chain of his-tagged sortilin luminal domain, mutant K172A (human) (Q99523 other isoform, or with tags, fused parts or gaps K172A K172A limits assumed): as the sequence (Q99523 other isoform, or with tags, fused parts or gaps R160A R160A limits assumed) above, with A116R, K128A counted along it
Chain of his-tagged sortilin luminal domain, mutant F174A (human) (Q99523 other isoform, or with tags, fused parts or gaps F174A F174A limits assumed): as the sequence (Q99523 other isoform, or with tags, fused parts or gaps R160A R160A limits assumed) above, with A116R, F130A counted along it
Chain of his-tagged sortilin luminal domain, mutant R163A (human) (Q99523 other isoform, or with tags, fused parts or gaps R163A R163A limits assumed): as the sequence (Q99523 other isoform, or with tags, fused parts or gaps R160A R160A limits assumed) above, with A116R, R119A counted along it
Chain of recombinant human Sortilin ectodomain with C-terminal poly-histidine tag (pCEP-Pu, EBNA293/HEK293 cells), ending at Ser725 (Q99523 other isoform, or with tags, fused parts or gaps limits assumed): as the sequence (Q99523 other isoform, or with tags, fused parts or gaps R160A R160A limits assumed) above, with A116R counted along it
Chain of his-tagged sortilin luminal domain, mutant R166A (human) (Q99523 other isoform, or with tags, fused parts or gaps R166A R166A limits assumed): as the sequence (Q99523 other isoform, or with tags, fused parts or gaps R160A R160A limits assumed) above, with A116R, R122A counted along it
Chain of his-tagged sortilin luminal domain, mutant F165A (human) (Q99523 other isoform, or with tags, fused parts or gaps F165A F165A limits assumed): as the sequence (Q99523 other isoform, or with tags, fused parts or gaps R160A R160A limits assumed) above, with A116R, F121A counted along it

Turning to “GST-NGF-pro-domain fusion protein (Nykjaer et al., Nature 2004) (from UniProt P01138 19-121)”, the Kd is 5.59 nM in assay [1]; 4.27 nM in assay [2]; 3.91 nM in assay [3]; 3.86 nM in assay [4]; 1.89 nM in [5]; 2.7 nM in assay [6]. This substance also showed a Kd in assay [7] of 4.38 nM. The kon in assay [5] was 147000 M⁻¹ s⁻¹.

Substance “human NGF-propeptide expressed in E. coli” yielded a percent inhibition of proNGF binding to Sortilin in assay [8] of 85%. In [9], the Kd came to 8 nM.

Take “recombinant human Sortilin ectodomain with C-terminal poly-histidine tag (pCEP-Pu, EBNA293/HEK293 cells), ending at Ser725 (from UniProt Q99523 78-755) (receptor)”: the response (RU) in assay [10] is 300 RU.

For the origin of these results see US20150023971A1.
